Laboratory results: patent US20220106405A1 (YEDA RESEARCH AND DEVELOPMENT, published 2022)
Blank lines part the entries; values can stand above or below the binder they belong to.

Legend:
MMP-14 = MMP-14 (UniProt P50281 112-538, limits assumed); assay: ELISA, MMP-coated plate
Experimental: (§1) MMP-7 Elisa binding assay: A 96-well plate (Nunc) was coated with MMP at 5 mg/ml. […] The bound Fab fragment/full length was detected using a goat anti-Fab/anti-mouse antibody followed by peroxidase-conjugated bovine anti-goat antibody according to standard procedures. A four-parametric sigmoidal curve-fitting analysis was used to calculate the half-maximal effective concentration.
(§2) The lack of binding to a panel of other MMPs helped measure the novel antibody's affinity to epitopes specifically unique to MMP-7.

MMP-12 = MMP-12 (UniProt P39900 106-263, limits assumed); assay: ELISA, MMP-coated plate
Experimental: as §1, §2

MMP-13 = MMP-13 (UniProt P45452 104-471, limits assumed); assay: ELISA, MMP-coated plate
Experimental: as §1, §2

MMP-9 = MMP-9 (UniProt P14780 107-707, limits assumed); assay: ELISA, MMP-coated plate
Experimental: as §1, §2

MMP-7 zymogen / pro form = molecular target: T1, MMP-7 zymogen / pro form (UniProt P09237 18-267, limits assumed); assay: dot blot
T1 construct: domain: zymogen/pro form; Recombinant zymogen on the dot blot and in ELISA; also called MMP-7 pro form; zymogen form of the enzyme
T1 sequence (looked up): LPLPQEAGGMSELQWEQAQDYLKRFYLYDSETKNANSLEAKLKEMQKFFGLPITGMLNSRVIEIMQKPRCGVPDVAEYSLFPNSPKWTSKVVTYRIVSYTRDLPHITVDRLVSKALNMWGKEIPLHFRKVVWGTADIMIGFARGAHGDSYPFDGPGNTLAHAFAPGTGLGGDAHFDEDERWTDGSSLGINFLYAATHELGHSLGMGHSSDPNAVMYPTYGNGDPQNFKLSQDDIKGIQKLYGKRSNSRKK
Experimental: A dot blot was performed by immobilizing 1, 1.5 and 2 μg zymogen and activated MMP-7 recombinant enzyme on nitrocellulose membrane pre wetted with TBST using a vacuum based manifold 96 well dot-blot system (GE 10447900 Minifold dot blot). The blocking was performed for 1 hour at room temperature with 3% BSA in TBST. The membrane was then probed for binding by antibody eluted in the earlier step by incubating overnight. The anti MMP-7 mAb used was at 2 ug/ml concentration in TBST. The membrane after 3 washes in TBST was incubated with goat anti mouse HRP antibody and developed using ECL to determine the selectivity of binding towards catalytic form only.
Only antibodies that were capable of binding to the activated form of MMP-7 and not the zymogen were selected for further development (i.e. selected for fusion and developed to generate monoclonal antibodies). This was carried out by dot blot analysis using a nitrocellulose membrane coated with varying concentrations of active MMP-7 and its zymogen respectively.

[1] = molecular target: T2, recombinant human MMP-7 activated form (catalytic domain) (human, UniProt P09237 95-267); assay: ELISA on MMP-coated plate, four-parametric sigmoidal fit
T2 construct: domain: catalytic domain; Contains the catalytic zinc; also called MMP-7 active enzyme
T2 sequence (looked up): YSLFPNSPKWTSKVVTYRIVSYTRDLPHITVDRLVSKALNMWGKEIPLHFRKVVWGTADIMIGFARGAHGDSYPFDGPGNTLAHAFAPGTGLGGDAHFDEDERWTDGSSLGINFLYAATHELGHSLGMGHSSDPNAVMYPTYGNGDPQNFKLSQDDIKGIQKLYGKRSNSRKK
Experimental: as §1, §2

[2] = molecular target: T2, recombinant human MMP-7 activated form …; assay: enzyme inhibition, fluorogenic peptide Mca-Pro-Leu-Gly-Leu-Dpa-Ala-Arg-NH2, 10 nM MMP-7, 37 C
Experimental: The enzymatic reaction was initiated by addition of the fluorogenic peptide to a final concentration of 10 μM. Fluorescence was recorded immediately and continuously for 30 min.
Remarkably, considering that the immunization booster also included the common zinc motif, the antibody is fully selective for MMP-7. […] Simultaneously the effect of the antibody on catalytic activity of related MMPs was measured. The catalytic activities in vitro of MMP-9, -14 and -12 were either not affected or in the case of MMP-14 only negligibly affected by the anti MMP-7 Fab treatment (FIG. 2D).

MMP-9, sequence (P14780 107-707 limits assumed): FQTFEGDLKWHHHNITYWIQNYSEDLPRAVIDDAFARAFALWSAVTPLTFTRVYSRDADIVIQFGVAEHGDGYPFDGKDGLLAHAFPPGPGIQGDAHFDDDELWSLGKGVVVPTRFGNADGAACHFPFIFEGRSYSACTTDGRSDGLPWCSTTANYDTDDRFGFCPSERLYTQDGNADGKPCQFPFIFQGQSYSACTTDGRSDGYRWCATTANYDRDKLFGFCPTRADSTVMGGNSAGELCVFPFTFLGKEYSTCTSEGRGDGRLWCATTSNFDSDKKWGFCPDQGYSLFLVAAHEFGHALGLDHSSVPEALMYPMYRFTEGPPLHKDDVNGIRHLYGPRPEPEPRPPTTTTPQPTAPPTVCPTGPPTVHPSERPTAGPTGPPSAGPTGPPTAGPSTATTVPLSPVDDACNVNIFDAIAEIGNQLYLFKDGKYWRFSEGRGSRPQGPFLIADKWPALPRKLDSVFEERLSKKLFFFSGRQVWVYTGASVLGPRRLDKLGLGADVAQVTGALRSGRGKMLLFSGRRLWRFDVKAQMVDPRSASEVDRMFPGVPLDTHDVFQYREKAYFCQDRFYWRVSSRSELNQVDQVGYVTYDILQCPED
MMP-12, sequence (P39900 106-263 limits assumed): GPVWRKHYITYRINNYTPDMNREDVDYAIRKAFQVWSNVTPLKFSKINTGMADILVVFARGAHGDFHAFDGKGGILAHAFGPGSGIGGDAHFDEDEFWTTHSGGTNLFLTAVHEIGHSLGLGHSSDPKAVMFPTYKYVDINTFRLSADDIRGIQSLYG

binding result (MMP-14): no binding
binding result (MMP-12): no binding
binding result (MMP-13): no binding
binding result (MMP-9): no binding
binding result (MMP-7 zymogen / pro form): no binding
Kd [1]: 43.1 nM
B1: GSM-192 monoclonal antibody (antibody, V domains shown)
VH: EVQLQQSGPELVKPGASVKIPCKASGYTFTDYNMDWMKQSHGKSLEWIGHINPNNGGTFYNQKFKDKATFIVDKSSNTAYMELRSLTSEDTAVYFCARGGGLRRGPFAYWGQGTLVTVS
VL: DIVTQSPASLAVSLGQRATISCRASESFDSYGNTFVHWYQQKPGQPPKLLIYLVSNLESGVPAGFRGRGSRTDFTLTIDPVEADDAATYYCQQNNEDPYTFGGGTKLEIKR
notes: also called anti MMP-7 mAb; anti MMP-7 Ab

Ki [2]: 132 nM
B2: GSM-192 Fab fragment (Fab, V domains shown)
VH: B1 VH
VL: B1 VL
notes: also called anti MMP-7 Fab
